{"source": "patent US12064464B2", "about": "“Plantaricin NC8 alpha beta markedly enhances the effects of antibiotics” (priority 2018, dated 2024)", "molecules": {"B1": {"name": "PLNC8 αβ: two-peptide class IIb bacteriocin of L. plantarum NC8: PLNC8 α (SEQ ID NO 1) with PLNC8 β (SEQ ID NO 2) (peptide)", "alpha": "DLTTKLWSSWGYYLGKKARWNLKHPYVQF", "beta": "SVPTSVYTLGIKILWSAYKHRKTIEKSFNKGFYH", "modifications": "Lactobacillus plantarum NC8"}}, "key": {"[1]": {"test_system": "antibiotic resistant bacteria", "experiment": "Combination of PLNC8 αβ with antibiotics, summary over tested bacteria", "type": "cell-based", "settings": "wide range of antibiotics", "protocol": "(§1) The broth microdilution method was used to determine minimal inhibitory concentration (MIC) and minimal bactericidal concentration (MBC). Two-fold serial dilutions of the peptides were used and the final concentrations ranged from 0.097-50 μM. […] The effect of bacteriocin-antibiotic combinations was accomplished by using the same concentration series of antibiotics with a constant concentration of PLNC8 αβ (3.1 μM) in all the wells. […] All experiments were repeated at least three times."}, "S. epidermidis N15": {"test_system": "S. epidermidis N15", "experiment": "Broth microdilution MIC/MBC", "type": "cell-based, Staphylococcus epidermidis", "settings": "Table 1, peptide alone, 20 h; no unit in table, μM", "text": "(§2) Staphylococcus aureus CCUG 35601 (MRSA, Culture Collection, University of Gothenburg) and Staphylococcus aureus ATCC 29213 (MSSA, ATCC, Manassas, VA). Staphylococcus epidermidis ATCC 12228 (ATCC, Manassas, VA), RP62A, N15 and 10 clinical isolates of Staphylococcus epidermidis that have previously been characterized. Isolated Escherichia coli, Enterococcus faecium (including VRE), Pseudomonas aeruginosa, Klebsiella pneumoniae, Enterobacter spp and Acinetobacter baumannii were obtained from Orebro University hospital. Isolated Streptococcus mutans, Streptococcus constellatus and Streptococcus anginosus were obtained from Malmo University. The bacteria were grown on Luria-Bertani (LB) agar plates, supplemented with 5% defibrinated horse blood, and incubated at 37° C. overnight. Single colonies were inoculated into 5 ml of LB broth and incubated on a shaker (300 rpm) at 37° C. overnight. The bacterial concentration was determined by viable count and adjusted to correlate with approximately 10^9 CFU/ml.\nas §1"}, "[2]": {"test_system": "S. epidermidis ATCC 12228", "experiment": "Broth microdilution MIC/MBC", "type": "cell-based, Staphylococcus epidermidis", "text": "as §2, §1"}, "S. epidermidis RP62A": {"test_system": "S. epidermidis RP62A", "experiment": "Broth microdilution MIC/MBC", "type": "cell-based, Staphylococcus epidermidis", "settings": "Table 1, peptide alone, 20 h; no unit in table, μM", "text": "as §2, §1"}, "[3]": {"test_system": "S. epidermidis 157 (hGISE strain)", "experiment": "Broth microdilution MIC/MBC", "type": "cell-based, Staphylococcus epidermidis", "settings": "Table 3, peptide alone", "text": "as §2, §1"}, "S. epidermidis 154": {"test_system": "S. epidermidis 154", "experiment": "Broth microdilution MIC/MBC", "type": "cell-based, Staphylococcus epidermidis", "settings": "Table 3, peptide alone", "text": "as §2, §1"}, "S. epidermidis 117": {"test_system": "S. epidermidis 117", "experiment": "Broth microdilution MIC/MBC", "type": "cell-based, Staphylococcus epidermidis", "settings": "Table 1, peptide alone, 20 h; no unit in table, μM", "text": "as §2, §1"}, "[4]": {"test_system": "S. epidermidis 126 (hGISE strain)", "experiment": "Broth microdilution MIC/MBC", "type": "cell-based, Staphylococcus epidermidis", "settings": "Table 3, peptide alone", "text": "as §2, §1"}, "Porphyromonas gingivalis": {"test_system": "Porphyromonas gingivalis", "settings": "references 1, 2; cited from earlier work"}, "[5]": {"test_system": "Streptococcus spp (S. mutans, S. constellatus, S. anginosus)", "experiment": "Sytox Green uptake (membrane permeabilization)", "type": "cell-based", "settings": "5 μM, 2 min", "protocol": "The fluorescent dye Sytox® Green, which can only cross damaged membranes and fluoresce upon binding to nucleic acids, was used to study the antimicrobial activity of PLNC8 αβ on S. epidermidis, S. aureus (MSSA, MRSA) and Streptococcus spp. The bacteria were washed and resuspended in Krebs-Ringer Glucose buffer (KRG) (120 mM NaCl, 4.9 mM KCl, 1.2 mM MgSO4, 1.7 mM KH2PO4, 8.3 mM Na2HPO4, and 10 mM glucose, pH 7.3) and incubated in the presence or absence of different combinations of PLNC8 αβ in 96-well microtiter plates for 2 min. Images were captured with Olympus BX41 at 40× magnification."}, "S. epidermidis": {"test_system": "S. epidermidis", "experiment": "Broth microdilution MIC/MBC, strain not named", "type": "cell-based, Staphylococcus epidermidis", "text": "as §2, §1"}, "[6]": {"test_system": "S. aureus ATCC 29213 (MSSA)", "experiment": "Broth microdilution MIC/MBC", "type": "cell-based, Staphylococcus aureus", "settings": "Table 1, peptide alone, 20 h; no unit in table, μM", "text": "as §2, §1"}, "[7]": {"test_system": "S. aureus CCUG 35601 (MRSA)", "experiment": "Broth microdilution MIC/MBC", "type": "cell-based, Staphylococcus aureus", "text": "as §2, §1"}, "HaCaT cells": {"test_system": "HaCaT cells", "experiment": "Scratch assay and ELISA on keratinocytes", "type": "cell-based, human", "settings": "uninfected cells, 24 h", "protocol": "Human keratinocytes (HaCaT) were cultured in Dulbecco's modified Eagle medium (DMEM, Fisher Scientific, New York, USA) supplemented with 10% FBS (FBS, Invitrogen Ltd, Paisley, UK) incubated in a stable environment at 95% air, 5% CO2 and 37° C. The cells were used at passages 1-20.\nHaCaT cells were cultured overnight in a 24-well plate at a seed-count of 2×10^5 cells per well. […] Co-stimulation was performed by infection of human keratinocytes, in the presence or absence of PLNC8 αβ, for 24 h, or infection of the cells for 1 h followed by addition of different concentrations of PLNC8 αβ for 6 h. Furthermore, infection of keratinocytes, with or without PLNC8 αβ, were monitored in real-time for 72 hours using IncuCyte Live-cell Analysis System. Bacterial load was quantified by measuring the fluorescence of green fluorescent protein (GFP) and cell viability was determined by measuring the fluorescent dye Draq7 that stains nuclei of dead cells.\nELISA was performed on supernatants retrieved from human keratinocytes that were exposed to MSSA and PLNC8 αβ. The levels of CXCL8 (Human IL-8 ELISA MAX Deluxe, Nordic Biosite, Sweden) and IL-6 (Human IL-6 ELISA MAX Deluxe, Nordic Biosite, Sweden) were quantified according to the manufacturer's instructions."}, "[8]": {"settings": "Table 1, peptide alone, 20 h, no unit in table, μM"}}, "note": "“Also recorded” adds a separate entry of the source.", "data": [{"molecule": "B1", "values": [{"measurement": "enhancement of the effects of antibiotics", "setting": "[1]", "value": "2-130 fold"}, {"measurement": "MBC", "setting": "S. epidermidis N15", "value": 6.25, "unit": "µM"}, {"measurement": "MIC", "setting": "S. epidermidis N15", "value": 6.25, "unit": "µM"}, {"measurement": "molar ratio PLNC8 α to PLNC8 β for inhibiting and killing", "setting": "[2]; 20 h", "value": "molar ratio of 1:1 is most efficient at inhibiting and killing S. epidermidis; also recorded: ratios between 1:1 and 1:7 were also found to be effective"}, {"measurement": "molar ratio PLNC8 α to PLNC8 β for inhibiting and killing", "setting": "[2]; 20 h, listed as PLNC8αβ", "value": "molar ratio of 1:1 is most efficient at inhibiting and killing S. epidermidis"}, {"measurement": "MBC", "setting": "[2]; [8]", "value": 12.5, "unit": "µM"}, {"measurement": "MIC", "setting": "[2]; [8]", "value": 6.25, "unit": "µM"}, {"measurement": "MBC", "setting": "[2]; Table 2, peptide alone", "value": 12.5, "unit": "µM"}, {"measurement": "MIC", "setting": "[2]; Table 2, peptide alone", "value": 6.25, "unit": "µM"}, {"measurement": "MBC", "setting": "S. epidermidis RP62A", "value": 6.25, "unit": "µM"}, {"measurement": "MIC", "setting": "S. epidermidis RP62A", "value": 6.25, "unit": "µM"}, {"measurement": "MBC", "setting": "[3]", "value": ">50", "unit": "µM"}, {"measurement": "MIC", "setting": "[3]", "value": 12.5, "unit": "µM"}, {"measurement": "MBC", "setting": "S. epidermidis 154", "value": 12.5, "unit": "µM"}, {"measurement": "MIC", "setting": "S. epidermidis 154", "value": 6.25, "unit": "µM"}, {"measurement": "MBC", "setting": "S. epidermidis 117", "value": 12.5, "unit": "µM"}, {"measurement": "MIC", "setting": "S. epidermidis 117", "value": 12.5, "unit": "µM"}, {"measurement": "MBC", "setting": "[4]", "value": 50, "unit": "µM"}, {"measurement": "MIC", "setting": "[4]", "value": 12.5, "unit": "µM"}, {"measurement": "activity against Porphyromonas gingivalis", "setting": "Porphyromonas gingivalis", "value": "efficient against the periodontal pathogen Porphyromonas gingivalis"}, {"measurement": "relative susceptibility of Streptococcus species", "setting": "[5]", "value": "S. constellatus and S. anginosus were more susceptible to PLNC8 αβ than S. mutans"}, {"measurement": "decrease of MIC and MBC of gentamicin by the peptides", "setting": "S. epidermidis; S. epidermidis, FIG. 15", "value": "15-30 fold"}, {"measurement": "decrease of MIC and MBC of rifampicin by the peptides", "setting": "S. epidermidis; S. epidermidis, FIG. 15", "value": 100, "unit": "fold"}, {"measurement": "decrease of MIC and MBC of vancomycin by the peptides", "setting": "S. epidermidis; S. epidermidis, FIG. 15", "value": 2, "unit": "fold"}, {"measurement": "inhibition of S. epidermidis isolated from PJIs", "setting": "S. epidermidis; incl. hGISE, FIG. 14", "value": "effectively inhibits different strains of S. epidermidis isolated from PJIs, including S. epidermidis (hGISE)"}, {"measurement": "MBC", "setting": "[6]", "value": 25, "unit": "µM"}, {"measurement": "MIC", "setting": "[6]", "value": 12.5, "unit": "µM"}, {"measurement": "MBC", "setting": "[7]; [8]", "value": 25, "unit": "µM"}, {"measurement": "MIC", "setting": "[7]; [8]", "value": 12.5, "unit": "µM"}, {"measurement": "MBC", "setting": "[7]; Table 3, MRSA, peptide alone", "value": 25, "unit": "µM"}, {"measurement": "MIC", "setting": "[7]; Table 3, MRSA, peptide alone", "value": 12.5, "unit": "µM"}, {"measurement": "IL-6 and CXCL8", "setting": "HaCaT cells", "value": "not altered"}, {"measurement": "wound healing (scratch assay)", "setting": "HaCaT cells", "value": "promoted wound healing in vitro"}]}]}
